Substitutions are numbered along the chain they refer to.

B1: MUC1 gB06 (antibody, V domains shown)
VH: EVQLVQSGAEVKKPGATVKISCKVSGYTFTDHTMHWIKQRPGKGLEWMGYFYPRDDSTNYNEKFKGRVTLTADKSTDTAYMELSSLRSEDTAVYYCARGLRYALDYWGQGTLVTVSS
VL: EIVLTQSPATLSLSPGERATLSCRASSSVSSSYLYWYQQKPGQAPRLWIYGTSNLASGVPARFSGSGSGTDYTLTISSLEPEDAAVYYCHQYAWSPPTFGQGTKLEIK
notes: Monoclonal antibody; also called B06 antibody; anti-MUC1 antibody B06
B2: MUC1 G12 (antibody, V domains shown)
VH: B1 VH
VL: B1 VL with S30G, Y33N, G51R, T52S, S53T, N54K, A93R
notes: Monoclonal antibody; It was detected with an anti-human Fc secondary, and DSF reports CH2 and Fab regions
B3: MUC1 H02 (antibody, V domains shown)
VH: B1 VH
VL: B1 VL with Y50I, A93S
notes: as for B2

One assay deals with T1, recombinant 60 mer MUC1 non-glycosylated-biotin (biotin conjugated to the N-terminus).
T1 construct: Not glycosylated; also called 60mer MUC1 non-glycosylated peptide
T1 sequence (peptide, as listed by the source): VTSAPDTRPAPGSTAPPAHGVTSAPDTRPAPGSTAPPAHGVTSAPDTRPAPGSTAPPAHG
Description: ELISA, peptide coated on plate, anti-Fc HRP detection. The procedure: (§1) MUC1 ELISA: Antigens were coated directly on a Streptavidin (Pierce, 15500) or Maxisorp (VWR, 62409-024) 96-well plate at 100ng/well in PBS. Coated plates were incubated at 4° C. overnight. The plates were blocked with casein blocking buffer (Thermo Fisher, 37528) and washed with PBS-Tween-20. Antibodies were serially diluted in PBS, added to the coated wells and incubated for 1h at room temperature with shaking. To test for stickiness, antibodies were also added to uncoated, blocked wells. Peroxidase (HRP)-conjugated anti-Fc secondary (Jackson Immunoresearch, #109-035-098) was used for detection, followed by a […] substrate (Thermo Fisher, 34028) and H2S04 quench. Absorbance was read at 450 nm on a Molecular Devices plate reader.
Take B1: the binding result is listed as “no binding”.

In the case of B2, the binding result is given as “no binding”.

B3: the binding result is “no binding”.

For a further assay, the target named is T2, decoy peptide (Tn (GalNac) antigen or sialyl Tn (Neu5Acα2-6GalNAc) antigen modifications on some of the S/T residues).
T2 construct: also called glycosylated decoy peptide
T2 peptide: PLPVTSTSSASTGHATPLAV
Described as above. The protocol:
as §1
Take B1: the binding result is “no binding”.

Turning to B2, the binding result is “no binding”.

Regarding B3, the binding result is “no binding”.

In a further assay the target is T3, recombinant 20 mer MUC1 glycosylated-biotin (Tn (GalNac) antigen or sialyl Tn (Neu5Acα2-6GalNAc) antigen modifications on some of the S/T residues; biotin conjugated to the N-terminus).
T3 construct: also called 20mer glycosylated MUC1 peptide
T3 sequence (peptide, as listed by the source): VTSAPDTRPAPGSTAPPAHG
Described as above. The protocol:
as §1
As to B1, the binding result was “binds”.

For B2, the binding result is listed as “binds”.

With B3, the binding result was “binds”.
